B1: CXCL5: recombinant mouse CXCL5 (BioLegend #573302) (protein, UniProt P50228 41-132, looked up)
C-X-C motif chemokine 5: APSSVIAATELRCVCLTVTPKINPKLIANLEVIPAGPQCPTVEVIAKLKNQKEVCLDPEAPVIKKIIQKILGSDKKKAKRNALAVERTASVQ
B2: CXCL17: recombinant mouse CXCL17 (BioLegend #585402); chemokine ligand of GPR35 (protein, UniProt Q5UW37 23-119, looked up)
C-X-C motif chemokine 17: SPNPGVARSHGDQHLAPRRWLLEGGQECECKDWFLQAPKRKATAVLGPPRKQCPCDHVKGREKKNRHQKHHRKSQRPSRACQQFLKRCHLASFALPL

Legend:
GPR35 [1] = biological target: T1, GPR35 (Homo sapiens, UniProt Q9HC97); conditions: in vitro; cited from earlier work
Target sequence in this assay (Q9HC97 whole entry): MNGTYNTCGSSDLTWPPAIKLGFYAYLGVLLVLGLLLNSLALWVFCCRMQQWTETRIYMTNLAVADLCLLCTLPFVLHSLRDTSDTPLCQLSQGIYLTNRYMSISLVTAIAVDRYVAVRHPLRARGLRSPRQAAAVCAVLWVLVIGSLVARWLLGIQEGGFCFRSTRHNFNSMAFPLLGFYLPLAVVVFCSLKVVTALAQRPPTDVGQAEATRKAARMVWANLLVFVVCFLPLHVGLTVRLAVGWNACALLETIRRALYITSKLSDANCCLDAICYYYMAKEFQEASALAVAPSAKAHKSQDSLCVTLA

mouse GPR35 = mouse GPR35 (Mus musculus, UniProt Q9ES90); conditions: in vitro; cited from earlier work
prostate cancer = conditions: phase III clinical trial in prostate cancer, unselected patients; cited from earlier work
[2] = tested on: Gr1+ cells isolated from the bone marrow of healthy mice; experiment: Transwell migration assay with recombinant proteins, Gr1+ cells; assay type: cell-based, mouse; conditions: Gr1+ cells mostly Ly6G+/Ly6C^int PMN cells; increasing concentration of recombinant protein
Source text: (§1) Gr1+ cells and monocytes were isolated from the bone marrow (tibias and femurs) of C57BL/6 wild type, 3 months old mice using the MACS Myltenyi Biotec Cell Isolation system according to the manufacturer's instruction. For monocytes isolation the Monocyte Isolation Kit (BM) (Miltenyi 130-100-629) was used, whereas Gr1 positive cells were isolated using the antibody Anti-Gr-1-Biotin, clone RB6-8C5 (Miltenyi 130-101-894). Red blood cells were lysed with the ACK lysis buffer (ThermoFisher Scientific A1049201). Total bone marrow cells and Gr1+ cells were cultured for 4 days. Briefly, 40 ng/ml GM-CSF (PeproTech #315-03) and 40 ng/ml IL-6 (PeproTech #216-16) were added to the control medium RPMI 1640 (ThermoFisher Scientific 11875-093), supplemented with penicillin-streptomycin, 10% FBS, 10 mM HEPES, 20 μM 2-Mercaptoethanol. Either recombinant mouse CXCL5 (BioLegend #573302) or recombinant mouse CXCL17 (BioLegend #585402) was added at the beginning of the experiment (200 nM). For the migration assay 2.5×10^5 MACS sorted cells were resuspended in 100 μL of either RPMI 1640 control medium or organoid complete medium and placed on the upper well of the transwell system (5 μm, Corning #160241). […] The migration of cells was quantified by flow cytometry, 15 seconds acquisition time, using BD LSR II flow cytometer.

[3] = tested on: whole bone marrow (BM) mouse cells and Gr1+ cells isolated from the BM; experiment: 4-day culture of bone marrow and Gr1+ cells in GM-CSF, IL-6 medium plus recombinant chemokine (flow analysis, qRT-PCR); assay type: cell-based; conditions: 4 days culture, GM-CSF and IL-6, recombinant chemokine 200 nM
Source text: Gr1+ cells and monocytes were isolated from the bone marrow (tibias and femurs) of C57BL/6 wild type, 3 months old mice using the MACS Myltenyi Biotec Cell Isolation system according to the manufacturer's instruction. For monocytes isolation the Monocyte Isolation Kit (BM) (Miltenyi 130-100-629) was used, whereas Gr1 positive cells were isolated using the antibody Anti-Gr-1-Biotin, clone RB6-8C5 (Miltenyi 130-101-894). Red blood cells were lysed with the ACK lysis buffer (ThermoFisher Scientific A1049201). Total bone marrow cells and Gr1+ cells were cultured for 4 days. Briefly, 40 ng/ml GM-CSF (PeproTech #315-03) and 40 ng/ml IL-6 (PeproTech #216-16) were added to the control medium RPMI 1640 (ThermoFisher Scientific 11875-093), supplemented with penicillin-streptomycin, 10% FBS, 10 mM HEPES, 20 μM 2-Mercaptoethanol. Either recombinant mouse CXCL5 (BioLegend #573302) or recombinant mouse CXCL17 (BioLegend #585402) was added at the beginning of the experiment (200 nM). For the migration assay 2.5×10^5 MACS sorted cells were resuspended in 100 μL of either RPMI 1640 control medium or organoid complete medium and placed on the upper well of the transwell system (5 μm, Corning #160241). The migration assay with recombinant proteins was performed by adding to the bottom well 600 μL of RMPI1640 control medium supplemented with the indicated amount of either CXCL5 or CXCL17. The migration assay with organoid conditioned medium was performed by adding to the bottom well 600 μL of medium collected over 5 days of culture of prostate organoids with the indicated genotype. The migration of cells was quantified by flow cytometry, 15 seconds acquisition time, using BD LSR II flow cytometer.
For Flow Cytometry, spleen and lymph node single cell suspensions were prepared by mashing the tissue in 2% FBS/PBS. Tumor and control prostate tissue (from anterior lobes) single cell suspension was prepared by mincing the tumor and digestion with Collagenase Type I (Life Technologies #17018029) in 10% DMEM (GIBCO) for 1 hr at 37° C. Cell suspensions were passed through […] cell strainers to obtain single cell suspensions. Blood samples and single cell suspensions were re-suspended in 1-2 ml of ACK red cell lysis buffer (GIBCO) and lysed on ice for 1 minute. Cell suspensions were then washed in 2% FBS/PBS, centrifuged and re-suspended in 0.5-1 ml of 2% FBS/PBS. For flow cytometry, 100 μl of cell suspension was stained in a 96-well U-bottom plate and the following antibodies were used: CD45.2-Pacific Blue (BioLegend #109820), CD45.2-APC (eBioscience #17-0454-82), CD45.2-FITC (eBioscience #11-0454-85), Gr-1-FITC (eBioscience #11-5931), Gr-1-PE (eBioscience #12-5931-81), CD11b-PECy7 (eBioscience #25-0112), CD11b-FITC (eBioscience #11-0112-82), Ly6C-PE (eBioscience #12-5932-80), Ly6G-APC-Cy7 (BioLegend #127623), Ly6G-APC (BioLegend #127613), CD3-PE (eBioscience #12-0031), CD4-APC (BioLegend #100515), CD4-PE-Cy7 (eBioscience #25-0042-82), CD8-APC (BioLegend #100721), CD8-FITC (eBioscience #11-0081-85), B220-FITC (eBioscience #11-0452), CD19-PerCP-Cy5.5 (eBioscience #45-0193), F4/80-APC (eBioscience #17-4801), CD44-FITC (BD Pharmingen #561859), CD62L-APC (BioLegend #104411), CD206-PE (BioLegend #141705) and CD49f-APC (eBioscience #17-0495). All antibodies were used 1:100. To assess cell viability, cells were incubated with either DAPI or TO-PRO3 prior to FACS analysis. Foxp3 staining was done using FOXP3 Fix/Perm Buffer Set (BioLegend) and cells were stained by Foxp3-FITC antibody (eBioscience #11-5773). All staining mixtures were analyzed on a BD LSR II flow cytometer (Becton Dickinson). Resulting profiles were further processed and analyzed using the FlowJo 8.7 software.
Microarray analysis and gene set enrichment analysis on mouse tumor tissue were conducted and analyzed as previously described by Palucka, A. K. et al. (Palucka, A. K. et al. Cell 164, 1233-1247 (2016)). […]

[4] = tested on: monocytes isolated from the bone marrow of healthy mice; experiment: Transwell migration assay with recombinant proteins, monocytes; assay type: cell-based, mouse; conditions: increasing concentration of recombinant protein in bottom well
Source text: as §1

GPR35 [5] = biological target: T1, GPR35; conditions: cited from earlier work
Target sequence in this assay (Q9HC97 whole entry, species assumed): as the sequence (Q9HC97 whole entry) above

mouse GPR35, sequence (Q9ES90 whole entry): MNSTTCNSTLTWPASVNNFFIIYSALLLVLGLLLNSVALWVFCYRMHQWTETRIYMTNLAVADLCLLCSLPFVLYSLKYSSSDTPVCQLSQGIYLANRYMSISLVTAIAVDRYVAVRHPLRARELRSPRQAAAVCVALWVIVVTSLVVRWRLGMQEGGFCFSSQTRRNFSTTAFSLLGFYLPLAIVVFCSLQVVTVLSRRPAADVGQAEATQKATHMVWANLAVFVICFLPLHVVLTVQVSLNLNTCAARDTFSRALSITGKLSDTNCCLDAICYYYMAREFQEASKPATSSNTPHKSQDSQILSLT

Row | Molecule | antagonist activity at mouse GPR35 (mouse GPR35) | migration of Gr1+ cells toward medium with recombinant protein [2] | expression of the Ly6C and Ly6G markers (flow analysis) [3] | expression profile of the genes tested (qRT-PCR) [3] | other results
1 | COC(=O)c1cnn(-c2ccc(F)cc2F)c1/C=N/NC(=S)NC(C)(C)C [CID2745687] | in vitro antagonist activity |  |  |  | antagonist activity at human GPR35 (GPR35 [1]): in vitro antagonist activity
2 | CC(/C=C1\SC(=S)N(CCCC(=O)Nc2ccc(C(=O)O)c(O)c2)C1=O)=C\c1ccccc1 [ML145] | in vitro antagonist activity |  |  |  | 
3 | COc1cccc2c1c(O)c(C(=O)N(C)c1ccc(C(F)(F)F)cc1)c(=O)n2C [Tasquinimod] |  |  |  |  | survival benefit (prostate cancer): failed to show a clear survival benefit
4 | B1 |  | chemoattractants for PMN | did not observe any significant difference | did not observe any significant difference | expression of the Ly6C and Ly6G markers (flow analysis) ([3]; listed as recombinant CXCL5): did not show significant changes
5 | B2 |  | only on monocytes | did not observe any significant difference | did not observe any significant difference | migration of monocytes toward medium with recombinant protein [4]: concentration-dependent effect; expression of the Ly6C and Ly6G markers (flow analysis) ([3]; listed as recombinant CXCL17): did not show significant changes; concentration range of GPR35-CXCL17 mediated functional responses (GPR35 [5]): ~50 nM

— patent publication US20210277102A1, “COMPOSITIONS AND METHODS FOR TREATING A TUMOR SUPPRESSOR DEFICIENT CANCER” (BETH ISRAEL DEACONESS MEDICAL CENTER, INC., priority 2016, published 2021)
